Among the data in the supplement of paper PMC12042874 are amyloid nucleation score values, retold here.

± gives the uncertainty stated by the source.

The nature of the series: amyloid nucleation score (Sup35N fusion, yeast selection) (log enrichment); library NNK1; higher = more nucleation; inactive = no reads after selection. Summed up: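 Sup35N was fused to peptides of 20 random codons and expressed in psi-negative yeast, which were induced with 100 μM copper sulfate for 24 hours and then grown on medium lacking adenine and uracil for 7 days at 30°C. Plasmid inserts from input and output were sequenced on Illumina. The nucleation score is the DiMSum log enrichment of output over input reads, centred on the mode score of non-aggregating sequences. Sequences with under 100 input reads were left out, and random libraries had three technical output replicates.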
Substance NLLWNTVIIFDFVRNLWTWS displayed an amyloid nucleation score of 0.813 ± 0.72.

The substance VTLPSAMQGSHFTWGPNVAF displayed an amyloid nucleation score of -0.422 ± 1.2.

Consider RSMGKIMIRENQRSLVMLSH, for which the amyloid nucleation score is 0.522 ± 0.57.

Turning to LTASLTAGVTRWVLRRFVYH, the amyloid nucleation score stood at 0.588 ± 0.77.

Take VCRGGSSFLLNTKLVNT: the amyloid nucleation score was determined as 0.675 ± 0.33.

Take WLESLARDSCSRFIDLHEWG: the amyloid nucleation score is -0.615 ± 1.5.

Turning to WVWDCFHDCVPYMGRTGLVA, the amyloid nucleation score was -0.56 ± 0.93.

Turning to LGSMSPVGLTKYLGDGEEVV, the amyloid nucleation score is -0.036 ± 0.55.

In the case of DYVHFMCHGLGR, the amyloid nucleation score was -0.185 ± 0.63.

The substance GRMLLM displayed an amyloid nucleation score of -1.25 ± 1.1.

The substance YATTD yielded an amyloid nucleation score of -0.776 ± 0.58.

On to TSWFSYRLANCAFHSQGFSR, for which the amyloid nucleation score was 0.366 ± 0.38.

Regarding RMAWMEGRPGDRMSRYGTSC, the amyloid nucleation score result is “inactive”.

CVGGWWKTRHMSIWNWIWWL showed an amyloid nucleation score of 0.197 ± 0.9.

For the substance FGMLIAVRSR, the amyloid nucleation score was 0.315 ± 0.29.

YSCGGSDSWGTTNSNLGFRH: the amyloid nucleation score is -0.751 ± 0.66.

As for DYRTCSCF, the amyloid nucleation score entry was “inactive”.

In the case of LEILL, the amyloid nucleation score was 0.145 ± 0.45.

The substance VKYGDSRLADAWNFVSNK returned an amyloid nucleation score of -0.476 ± 0.3.

Consider RIIGHLKFIMIRNNVSLCDM, for which the amyloid nucleation score was -0.146 ± 0.5.

On to HLHFTILY, for which the amyloid nucleation score amounted to 2.55 ± 0.28.

The substance KAFATMLNRLEVGTLGRG had an amyloid nucleation score of -1.36 ± 1.9.

WRAMAFVYLVASWSVGIRGR: the amyloid nucleation score came out at 0.07 ± 1.

In turn, WGCRV returned an amyloid nucleation score of -0.451 ± 0.58.

Regarding IRIWSSREGFASIVWTCLMG, the amyloid nucleation score was -0.32 ± 0.54.

Consider LINMYSMDMTTDHAPAYKLD, for which the amyloid nucleation score was -0.302 ± 0.47.

RALLMTMKFNKMGSFNIESN returned an amyloid nucleation score of 1.77 ± 0.2.

The substance LIRNKIRR registered an amyloid nucleation score of -1.12 ± 0.93.

In turn, RSQNLGGVFGET gave an amyloid nucleation score of -0.066 ± 0.41.

For the substance WSWRLPGPCLFFCAEEQLTK, the amyloid nucleation score was found to be 1.32 ± 0.84.

Regarding VVCVLRVVDVMFASRS, the amyloid nucleation score is 0.694 ± 1.2.

As for SYLFWDRCYSA, the amyloid nucleation score was -0.247 ± 0.4.

In the case of RWAVLACFCMGD, the amyloid nucleation score is 0.434 ± 0.81.

With GSSENRFF, the amyloid nucleation score result was “inactive”.

In turn, VIVQKSLS gave an amyloid nucleation score of -0.086 ± 0.61.

Consider HGMIRWYSYTSCHSYKVSGH, for which the amyloid nucleation score is -0.021 ± 0.33.

Turning to SSVILSDCSCFMVHQCWYLC, the amyloid nucleation score is -2.13 ± 2.7.

In turn, VWSGEE displayed an amyloid nucleation score of -0.344 ± 0.38.

Substance QNQSFLINPWQGSKLVDPTA displayed an amyloid nucleation score of 0.253 ± 0.53.

NFLCFGFFRWTVPDWAQFYV gave an amyloid nucleation score of 3.76 ± 0.12.

Regarding EIGYMGLSVSIFRCVWLFIF, the amyloid nucleation score was found to be 0.056 ± 0.34.

In turn, MRAFGVNGTVQRWWGSCSRF had an amyloid nucleation score of 0.766 ± 0.46.

KPYIFYFINVYCEA yielded an amyloid nucleation score of 5.917 ± 0.056.

Take YMKLRCMK: the amyloid nucleation score worked out at 0.019 ± 0.6.

Substance YNTRTRILWARVVNRVINLW had an amyloid nucleation score of 4.95 ± 0.072.

Consider DSWRSIIGFRERVSTMQYLI, for which the amyloid nucleation score stood at 0.96 ± 0.66.

In the case of NHYGSVAGLPPNNHWVSFCV, the amyloid nucleation score was -0.373 ± 0.99.

The substance LCFVPGS showed an amyloid nucleation score of 3.73 ± 0.073.

As to TECSSSGIALMWVFWRSICT, the amyloid nucleation score result was “inactive”.

NMYKSMNQSTE displayed an amyloid nucleation score of -0.705 ± 0.26.

For the substance TGTDVQGRSRLSDRAWGGYD, the amyloid nucleation score was -0.098 ± 0.36.

In turn, PERVVYANATAYRLLVKDAL had an amyloid nucleation score of 0.247 ± 0.33.

PRVQRPPKVRTAELTTGPSQ registered an amyloid nucleation score of -0.423 ± 0.37.

In the case of VGELYFIVWMDLLLVGWDGR, the amyloid nucleation score was 0.897 ± 0.53.

For YGFRQGTTSDNGTFTRIVHM, the amyloid nucleation score was -0.336 ± 0.5.

RSNPMTVMVSCLDEVVS registered an amyloid nucleation score of -0.536 ± 0.49.

As to FGKGNEGTIGNI, the amyloid nucleation score is -0.22 ± 0.76.

For GSRHFRDSVLSDVNVWYLKN, the amyloid nucleation score is -0.026 ± 0.35.

GRAFG registered an amyloid nucleation score of -0.557 ± 2.1.

As for PFVYLVYCGNGNVFAAKYLS, the amyloid nucleation score was 6.217 ± 0.059.

VTHGHVGTVGSWVVRTTAFM registered an amyloid nucleation score of -0.937 ± 2.1.

As for HSLGLANYFTSHEGLVGTF, the amyloid nucleation score entry was “inactive”.

As for TLESCGW, the amyloid nucleation score amounted to 0.773 ± 0.22.

Substance VRCCGPFRACIVLLAITKDG registered an amyloid nucleation score of -0.393 ± 1.4.

Consider RNCNWDYEVNIKWRVRVEFL, for which the amyloid nucleation score entry is “inactive”.

As to SFGVSNTSYWTAEKVVGYAT, the amyloid nucleation score was 0.501 ± 0.7.

SDLWLLECWTLDICGWLKAT gave an amyloid nucleation score of 0.992 ± 0.58.

On to CNRSLWAGPRLHPWTRMYVR, for which the amyloid nucleation score turned out to be 0.85 ± 0.62.

Regarding NRRCGGASSIRTGNRIWDDW, the amyloid nucleation score turned out to be 2.22 ± 0.23.

With LRFIRRYIESHITFVRKLLK, the amyloid nucleation score entry was “inactive”.

For LLAFYSVTFVSRWILQCYML, the amyloid nucleation score is -0.498 ± 0.36.

In turn, NECDVALIRWWG came in with an amyloid nucleation score of 0.419 ± 0.45.

QYLLFGYNYNAWERRDLALW: the amyloid nucleation score is 0.354 ± 0.22.

In the case of CLPNSYGAV, the amyloid nucleation score is 0.435 ± 0.53.

Take LYLYM: the amyloid nucleation score was 0.959 ± 0.34.

In the case of WELMLTTH, the amyloid nucleation score amounted to 0.453 ± 0.33.

Consider VLRNDTMGAGANF, for which the amyloid nucleation score is -1.3 ± 0.39.

Consider KTAPGLKCIQIEVWQY, for which the amyloid nucleation score was 0.035 ± 0.35.

In turn, GAFAFQKL yielded an amyloid nucleation score of 0.358 ± 1.1.

For SVDNMVGVTGSFGGARVILS, the amyloid nucleation score is -0.237 ± 0.39.

As to ITFLRSTIPSVRTRQRLHEL, the amyloid nucleation score worked out at 0.783 ± 0.4.

For HYGAKCGGPRAWGRDTDR, the amyloid nucleation score is 0.156 ± 0.69.

SRRNYWVFGGHMFND: the amyloid nucleation score is -0.134 ± 1.7.

SSCKCRCGFD: the amyloid nucleation score was -0.699 ± 0.67.

FTSAASQFRVMSGQSNSKYP returned an amyloid nucleation score of -1.2 ± 2.4.

The substance LDQKTFWLSVPVSWQIPADM had an amyloid nucleation score of 0.477 ± 0.61.

As for RKLDASHYMPVSDLEFCCMC, the amyloid nucleation score was found to be 6.752 ± 0.048.

The substance MTSCDWTTTKSSDVAPDWRM came in with an amyloid nucleation score of 0.424 ± 0.52.

In turn, AWMGLKNVN yielded an amyloid nucleation score of 1.59 ± 0.69.

NAYLKVIYQRSFGAPNRH: the amyloid nucleation score is -0.1 ± 0.69.

QPSGLGAECYM: the amyloid nucleation score was 0.423 ± 1.4.

As to YSLGVPSPRKILNVFGGTW, the amyloid nucleation score is -0.101 ± 0.47.

For the substance LWHEI, the amyloid nucleation score turned out to be 0.427 ± 0.51.

With VYCFCQNRSSFYGKMHLGMH, the amyloid nucleation score came out at 1.25 ± 0.62.

Consider MFGAHLA, for which the amyloid nucleation score entry was “inactive”.

As for SGAYATVPVYQEWLSQIKLL, the amyloid nucleation score was 0.327 ± 1.

In the case of YFDLWALSVLCCFFGVNSPF, the amyloid nucleation score was determined as 5.69 ± 0.087.

The substance LYHRGVFELCS yielded an amyloid nucleation score of 0.596 ± 0.34.

Substance VGLLEAFMLRGDSRRCD registered an amyloid nucleation score of -1.25 ± 2.1.

The substance SIQLGSFWSGCEICCDYPPA registered an amyloid nucleation score of -0.805 ± 0.67.

Consider PLFCNNWSVLEFERRLGDMH, for which the amyloid nucleation score stood at 1.03 ± 0.24.

Regarding RGVHVHRFVLLAMMKFQFGS, the amyloid nucleation score result was “inactive”.

As for VWWHYLSLYAIWYSYVRLYV, the amyloid nucleation score was -0.097 ± 0.52.

SKYLCNMLPISDLHMGQTFN displayed an amyloid nucleation score of -0.391 ± 0.44.

In turn, YRYSVQVLNCAKGAENGVII showed an amyloid nucleation score of -0.152 ± 0.32.

In the case of NFSLIFENMIALFPYPARKR, the amyloid nucleation score worked out at 7.742 ± 0.056.

Substance DSSMWFTASLYSYVLLSLNL gave an amyloid nucleation score of 0.73 ± 0.36.

VRGHKWVAWNWMRVARAEQE: the amyloid nucleation score is -0.257 ± 0.99.

As for CLEFLG, the amyloid nucleation score was -0.526 ± 0.49.

The substance NGFSDRKLDFHTRHMGH had an amyloid nucleation score of -0.147 ± 0.36.

On to ARHRDALFRCEDMFGKVQYS, for which the amyloid nucleation score was -0.296 ± 0.56.

GVRAVLFETWCRN registered an amyloid nucleation score of -0.693 ± 1.

With GNRGSSKV, the amyloid nucleation score entry was “inactive”.

RVWCKWH had an amyloid nucleation score of 0.027 ± 1.4.

VAVQRPIFIVMWPQNLCISA: the amyloid nucleation score stood at 3.69 ± 0.13.

RLAVLEELMVRICIVIRNFW: the amyloid nucleation score was -0.328 ± 0.69.

FHMPYLCNAKWRECLGFSAH had an amyloid nucleation score of 0.279 ± 1.4.

The substance AFFSAKIKAPFNDVFGYGFV gave an amyloid nucleation score of 0.289 ± 0.33.

With HILYKRFFFGSCSSGCHL, the amyloid nucleation score is -0.428 ± 0.47.

Substance ATLLFRFV yielded an amyloid nucleation score of 0.831 ± 0.64.

With MDWYIVYRPAYTLLCRIHVR, the amyloid nucleation score was determined as 1.16 ± 0.39.

For the substance YWKSIRPILIEC, the amyloid nucleation score entry is “inactive”.

Substance RVVWVVFGWGLIHLGGLLCG had an amyloid nucleation score of 0.146 ± 0.81.

Regarding RFANMLNVFENV, the amyloid nucleation score is -0.179 ± 0.26.

FLLIVVCWDLRLSSFHKLYF registered an amyloid nucleation score of 0.657 ± 0.73.

With VNEFLRFFLWSHLQWMI, the amyloid nucleation score is -0.045 ± 0.28.

Consider HRFDW, for which the amyloid nucleation score was 1.07 ± 0.48.

As for RFQTGPTLCSPQTEWPVLLN, the amyloid nucleation score stood at 0.987 ± 0.56.

In turn, CCDIEITLSHGVIGICSRKT registered an amyloid nucleation score of 0.844 ± 0.26.

YSLSRCSSEDMSYVYWCSRS registered an amyloid nucleation score of 0.119 ± 0.32.

Substance IFGTHFGTCFSGHAEEDTGE showed an amyloid nucleation score of 0.724 ± 0.83.

SEIPVNGLARLCRGRYRNRQ showed an amyloid nucleation score of 4.66 ± 0.11.

SLYRDYVRFGWLVRCGNGHD displayed an amyloid nucleation score of 0.078 ± 0.23.

Consider GTMTRWWFVVCTEKTAGTNR, for which the amyloid nucleation score worked out at 0.374 ± 0.44.

As to RFNNDMTSLLSGRIAMEYSY, the amyloid nucleation score was -0.344 ± 0.62.

In turn, DLPLGQRYSCAQVGGWSYYE had an amyloid nucleation score of 0.556 ± 0.45.

In turn, FLVPEVEKIFNIRVLEVRLM had an amyloid nucleation score of -0.834 ± 0.6.

Substance CCPDSQIIRYNIYAVVYLRM displayed an amyloid nucleation score of 1.92 ± 0.57.

For the substance YRPMYMVAEQWYYK, the amyloid nucleation score worked out at 0.896 ± 0.49.

In turn, VAATGNYIIIDNVRLVHAFG returned an amyloid nucleation score of -0.987 ± 0.67.
